Measurements from article PMC7617739, “Seo1p, a high-affinity, plasma membrane transporter of the γ-Glu-met dipeptide in yeasts and fungi” (The Journal of Biological Chemistry, 2025).

Substrate: CSCC[C@H](NC(=O)CC[C@H](N)C(=O)O)C(=O)O
Test: cells, lysate or membranes

B1: Seo1p (Saccharomyces cerevisiae S288C) (protein)
chain: MYSIVKEIIVDPYKRLKWGFIPVKRQVEDLPDDLNSTEIVTISNSIQSHETAENFITTTSEKDQLHFETSSYSEHKDNVNVTRSYEYRDEADRPWWRFFDEQEYRINEKERSHNKWYSWFKQGTSFKEKKLLIKLDVLLAFYSCIAYWVKYLDTVNINNAYVSGMKEDLGFQGNDLVHTQVMYTVGNIIFQLPFLIYLNKLPLNYVLPSLDLCWSLLTVGAAYVNSVPHLKAIRFFIGAFEAPSYLAYQYLFGSFYKHDEMVRRSAFYYLGQYIGILSAGGIQSAVYSSLNGVNGLEGWRWNFIIDAIVSVVVGLIGFYSLPGDPYNCYSIFLTDDEIRLARKRLKENQTGKSDFETKVFDIKLWKTIFSDWKIYILTLWNIFCWNDSNVSSGAYLLWLKSLKRYSIPKLNQLSMITPGLGMVYLMLTGIIADKLHSRWFAIIFTQVFNIIGNSILAAWDVAEGAKWFAFMLQCFGWAMAPVLYSWQNDICRRDAQTRAITLVTMNIMAQSSTAWISVLVWKTEEAPRYLKGFTFTACSAFCLSIWTFVVLYFYKRDERNNAKKNGIVLYNSKHGVEKPTSKDVETLSVSDEK
  Km: 48 µM
